The text below walks through data of publication PMC10427645, “Extracellular Pgk1 interacts neural membrane protein enolase-2 to improve the neurite outgrowth of motor neurons” (Communications Biology, 2023).

The target in the assay is T1, Eno2-Myc (mouse Enolase-2 fused with Myc) (mouse, UniProt P17183 1-434).
T1 construct: Pgk1-Flag was added to the medium of Sf21 cells expressing this protein, followed by BS3 cross-linking; source: Sf21 insect cells (Baculovirus, pVL-Eno2-Myc), expressed on or in the cells, not purified
T1 sequence (P17183 whole entry, the tested form may be a part): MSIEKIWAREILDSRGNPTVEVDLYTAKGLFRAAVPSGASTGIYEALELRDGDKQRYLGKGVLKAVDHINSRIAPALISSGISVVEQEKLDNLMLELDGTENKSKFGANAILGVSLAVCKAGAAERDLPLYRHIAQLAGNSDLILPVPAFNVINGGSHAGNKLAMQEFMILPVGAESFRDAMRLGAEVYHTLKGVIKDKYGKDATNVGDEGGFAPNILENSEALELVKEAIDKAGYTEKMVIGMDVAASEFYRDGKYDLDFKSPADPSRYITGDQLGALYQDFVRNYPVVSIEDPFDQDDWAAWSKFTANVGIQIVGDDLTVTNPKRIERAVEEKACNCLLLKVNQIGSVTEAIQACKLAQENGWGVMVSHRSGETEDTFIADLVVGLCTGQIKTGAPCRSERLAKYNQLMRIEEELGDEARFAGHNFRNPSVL
In words: cross-linking + co-IP; cell surface crosslinking-IP: Sf21 cells expressing the Myc-tagged protein incubated 2 h with recombinant Flag-tagged Pgk1 or fragment in the medium, BS3 cross-linking, lysates immunoprecipitated with anti-Flag or anti-Myc beads, western blot with anti-Flag and anti-Myc. As to conditions: one partner purified. On the technique in general: A western blot detects proteins with antibodies after separation by electrophoresis.

B1: recombinant mouse Pgk1 fused with Flag (Pgk1-Flag) (natural protein, UniProt P09411 1-417, looked up)
chain: MSLSNKLTLDKLDVKGKRVVMRVDFNVPMKNNQITNNQRIKAAVPSIKFCLDNGAKSVVLMSHLGRPDGVPMPDKYSLEPVAAELKSLLGKDVLFLKDCVGPEVENACANPAAGTVILLENLRFHVEEEGKGKDASGNKVKAEPAKIDAFRASLSKLGDVYVNDAFGTAHRAHSSMVGVNLPQKAGGFLMKKELNYFAKALESPERPFLAILGGAKVADKIQLINNMLDKVNEMIIGGGMAFTFLKVLNNMEIGTSLYDEEGAKIVKDLMSKAEKNGVKITLPVDFVTADKFDENAKTGQATVASGIPAGWMGLDCGTESSKKYAEAVGRAKQIVWNGPVGVFEWEAFARGTKSLMDEVVKATSRGCITIIGGGDTATCCAKWNTEDKVSHVSTGGGASLELLEGKVLPGVDALSNV
notes: phosphoglycerate kinase 1 (Pgk1), mouse, full-length coding region (1-417), cDNA cloned from NSC34 and C2C12 cells; also called extracellular Pgk1; phosphoglycerate kinase 1; source: Sf21 insect cells (Baculovirus expression system), purified (anti-Flag beads, eluted with 3x Flag peptide)
For the molecule B1, the “fold, intensity ratio of Flag relative to Myc in the Eno2-Myc plus Pgk1-Flag group against the Eno2-Myc group (set as 1)” value is 8 fold and the “fold, intensity ratio of Myc relative to Flag in the Pgk1-Flag plus Eno2-Myc group against the Pgk1-Flag group (set as 1)” value amounted to 14 fold.
